Biological target: cynomolgus CD3εδ Fc heterodimer (Cy CD3ε Fc / CD3δ Fc-HIS) (cynomolgus) (UniProt Q95LI8)
Experiment: BLI (ForteBio), pH 6.0

cynomolgus CD3εδ Fc heterodimer (Cy CD3ε Fc / CD3δ Fc-HIS) (cynomolgus), sequence (chain, as listed by the source mutant, chain 1 of 2): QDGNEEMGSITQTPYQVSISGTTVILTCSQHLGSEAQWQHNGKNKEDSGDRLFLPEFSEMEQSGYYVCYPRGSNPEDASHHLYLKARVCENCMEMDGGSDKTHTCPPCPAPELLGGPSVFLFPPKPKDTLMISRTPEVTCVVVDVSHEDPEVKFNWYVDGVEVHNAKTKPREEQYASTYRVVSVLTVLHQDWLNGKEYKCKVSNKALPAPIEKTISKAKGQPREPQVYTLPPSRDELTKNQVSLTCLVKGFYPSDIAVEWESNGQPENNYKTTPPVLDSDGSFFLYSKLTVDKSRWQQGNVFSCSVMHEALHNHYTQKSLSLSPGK
cynomolgus CD3εδ Fc heterodimer (Cy CD3ε Fc / CD3δ Fc-HIS) (cynomolgus), sequence (Q95LI8 22-100, stated change not applied, chain 2 of 2): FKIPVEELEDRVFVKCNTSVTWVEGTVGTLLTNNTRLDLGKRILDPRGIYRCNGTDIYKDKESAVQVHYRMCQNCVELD

B1: SAD10320_P04_E12 (antibody, V domains shown)
VH: QVQLVQSGAEVKKPGASVKVSCKASGFNIKDYYMHWVRQAPGQRLEWMGWIDLENANTIYDAKFQGRVTITRDTSASTAYMELSSLRSEDTAVYYCARDAYGHTFYDVWGQGTLVTVSS
VL: DIVMTQSPDSLAVSLGERATINCKSSQSLLNARTGKNYLAWYQQKPGQPPKLLIYWASTRESGVPDRFSGSGSGTDFTLTISSLQAEDVAVYYCKQSYHVRTFGGGTKVEIK
Binder B1 has a Kd of 79.8 nM and a kon of 136000 M⁻¹ s⁻¹.

Source: patent US20220380463A1
